Test results: publication PMC7968656

Biological target: protrusion protein of OmRV-LZ (N-terminal part of P3, cleaved from the ORF1-encoded precursor) (Omono River virus strain LZ (OmRV-LZ))
Assay: cryo-EM structure; sub-particle refinement of the protrusion extracted from the virus particles, capsid signal subtracted; first C1, then C5 symmetry; 4.10 Å

Substance: protrusion protein of OmRV-LZ (N-terminal part of P3, cleaved from the ORF1-encoded precursor) (natural protein)
- stoichiometry N: 5
